Data published in patent publication US20170306033A1 (Amgen, published 2017).

T1: human PAC1 receptor (human, UniProt P41586 21-468)
T1 sequence: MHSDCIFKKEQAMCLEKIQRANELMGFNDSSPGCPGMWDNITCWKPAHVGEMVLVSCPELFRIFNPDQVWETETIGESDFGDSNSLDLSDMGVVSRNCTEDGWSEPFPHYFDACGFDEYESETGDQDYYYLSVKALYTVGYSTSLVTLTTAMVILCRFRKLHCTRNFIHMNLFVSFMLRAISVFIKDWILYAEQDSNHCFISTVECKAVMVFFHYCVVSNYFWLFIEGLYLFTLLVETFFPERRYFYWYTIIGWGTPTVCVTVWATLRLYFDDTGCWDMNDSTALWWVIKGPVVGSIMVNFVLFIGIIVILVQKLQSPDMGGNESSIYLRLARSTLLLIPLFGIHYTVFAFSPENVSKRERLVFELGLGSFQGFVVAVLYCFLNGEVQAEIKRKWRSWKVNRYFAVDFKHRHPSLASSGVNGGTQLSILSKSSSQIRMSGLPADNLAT

B1: iPS:326648 (bispecific antibody, human IgG2, kappa, lambda)
light 1: EIVLTQSPATLSLSPGERATLSCRASQSVGRSLHWYQQKPGQAPRLLIKYASQSLSGIPARFSGSGSGTDFTLTISSLEPEDFAVYYCHQSSRLPFTFGPGTKVDIKRTVAAPSVFIFPPSDEQLKSGTASVVCLLNNFYPREAKVQWKVDNALQSGNSQESVTEQDSKDSTYSLESTLTLSKADYEKHKVYACEVTHQGLSSPVTKSFNRGEC
heavy 1: QVQLVESGGGVVQPGRSLRLSCAASGFTFSRFAMHWVRQAPGKGLEWVAVISYDGGNKYYAESVKGRFTISRDNSKNTLYLQMNSLRAEDTALFYCARGYDVLTGYPDYWGQGTLVTVSSASTKGPSVFPLAPCSRSTSESTAALGCLVKDYFPEPVTVSWNSGALTSGVHTFPAVLQSSGLYSLKSVVTVPSSNFGTQTYTCNVDHKPSNTKVDKTVERKCCVECPPCPAPPVAGPSVFLFPPKPKDTLMISRTPEVTCVVVDVSHEDPEVQFNWYVDGVEVHNAKTKPREEQFNSTFRVVSVLTVVHQDWLNGKEYKCKVSNKGLPAPIEKTISKTKGQPREPQVYTLPPSREEMTKNQVSLTCLVDGFYPSDIAVEWESNGQPENNYDTTPPMLDSDGSFFLYSDLTVDKSRWQQGNVFSCSVMHEALHNHYTQKSLSLSPGK
light 2: not shown
heavy 2: not shown
B2: iPS:327019 (bispecific antibody, human IgG1, kappa, N297G)
light 1: EIVLTQSPATLSLSPGERATLSCRASQSVGRSLHWYQQKPGQAPRLLIKYASQSLSGIPARFSGSGSGTDFTLTISSLEPEDFAVYYCHQSSRLPFTFGPGTKVDIKRTVAAPSVFIFPPSDEQLKSGTASVVCLLNNFYPREAKVQWKVDNALQSGNSQESVTEQDSKDSTYSLESTLTLSKADYEKHKVYACEVTHQGLSSPVTKSFNRGEC
heavy 1: not shown
light 2: EIVLTQSPGTLSLSPGERATLSCRASQSVSSGYLTWYQQKPGQAPRLLIYGASSRATGIPDRFSGSGSGTDFTLTISRLEPEDFAVYYCQQYGNSLSRFGQGTKLEIKRTVAAPSVFIFPPSDEQLKSGTASVVCLLNNFYPREAKVQWKVDNALQSGNSQESVTEQDSKDSTYSLKSTLTLSKADYEKHKVYACEVTHQGLSSPVTKSFNRGEC
heavy 2: not shown
B3: iPS:327026 (bispecific antibody, human IgG1, kappa, N297G)
light 1: EIVLTQSPATLSLSPGERATLSCRASQSVGRSLHWYQQKPGQAPRLLIKYASQSLSGIPARFSGSGSGTDFTLTISSLEPEDFAVYYCHQSSRLPFTFGEGTKVDIKRTVAAPSVFIFPPSDEQLKSGTASVVCLLNNFYPREAKVQWKVDNALQSGNSQESVTEQDSKDSTYSLESTLTLSKADYEKHKVYACEVTHQGLSSPVTKSFNRGEC
heavy 1: not shown
light 2: EIVLTQSPGTLSLSPGERATLSCRASQSVSSGYLTWYQQKPGQAPRLLIYGASSRATGIPDRFSGSGSGTDFTLTISRLEPEDFAVYYCQQYGNSLSRFGKGTKLEIKRTVAAPSVFIFPPSDEQLKSGTASVVCLLNNFYPREAKVQWKVDNALQSGNSQESVTEQDSKDSTYSLKSTLTLSKADYEKHKVYACEVTHQGLSSPVTKSFNRGEC
heavy 2: not shown
B4: iPS:328050 (bispecific antibody, human IgG1, kappa, lambda, N297G)
light 1: DIQMTQSPSSLSASVGDRITITCRASQSISRYLNWYQQKPGKAPKLLIYAASSLQSGIPSRFSGSGSGTDFTLTINSLQPEDFATYFCQQSYSPPFTFGQGTKVDIKRTVAAPSVFIFPPSDEQLKSGTASVVCLLNNFYPREAKVQWKVDNALQSGNSQESVTEQDSKDSTYSLESTLTLSKADYEKHKVYACEVTHQGLSSPVTKSFNRGEC
heavy 1: not shown
light 2: QSVLTQPPSVSAAPGQKVTISCSGSSSNIGNNYVSWYQQLPGTAPKLLIYDNNKRPSGIPDRFSGSKSGTSTTLGITGLQTGDEADYYCGTWDSRLSAVVFGGGTKLTVLGQPKANPTVTLFPPSSEELQANKATLVCLISDFYPGAVTVAWKADGSPVKAGVETTKPSKQSNNKYAAKSYLSLTPEQWKSHRSYSCQVTHEGSTVEKTVAPTECS
heavy 2: QVQLVESGGGVVQPGRSLRLSCAASGFTFSSFGMHWVRQAPGKGLEWVAVISFDGSIKYSVDSVKGRFTISRDNSKNTLFLQMNSLRAEDTAVYYCARDRLNYYDSSGYYHYKYYGMAVWGQGTTVTVSSASTKGPSVFPLAPSSKSTSGGTAALGCLVKDYFPEPVTVSWNSGALTSGVHTFPAVLQSSGLYSLESVVTVPSSSLGTQTYICNVNHKPSNTKVDKKVEPKSCDKTHTCPPCPAPELLGGPSVFLFPPKPKDTLMISRTPEVTCVVVDVSHEDPEVKFNWYVDGVEVHNAKTKPCEEQYGSTYRCVSVLTVLHQDWLNGKEYKCKVSNKALPAPIEKTISKAKGQPREPQVYTLPPSRKKMTKNQVSLTCLVKGFYPSDIAVEWESNGQPENNYKTTPPVLKSDGSFFLYSKLTVDKSRWQQGNVFSCSVMHEALHNHYTQKSLSLSPGK
B5: iPS:328048 (bispecific antibody, human IgG1, kappa, lambda, N297G)
light 1: not shown
heavy 1: not shown
light 2: QSVLTQPPSVSAAPGQKVTISCSGSSSNIGNNYVSWYQQLPGTAPKLLIYDNNKRPSGIPDRFSGSKSGTSTTLGITGLQTGDEADYYCGTWDSRLSAVVFGGGTKLTVLGQPKANPTVTLFPPSSEELQANKATLVCLISDFYPGAVTVAWKADGSPVKAGVETTKPSKQSNNKYAAKSYLSLTPEQWKSHRSYSCQVTHEGSTVEKTVAPTECS
heavy 2: QVQLVESGGGVVQPGRSLRLSCAASGFTFSSFGMHWVRQAPGKGLEWVAVISFDGSIKYSVDSVKGRFTISRDNSKNTLFLQMNSLRAEDTAVYYCARDRLNYYDSSGYYHYKYYGMAVWGQGTTVTVSSASTKGPSVFPLAPSSKSTSGGTAALGCLVKDYFPEPVTVSWNSGALTSGVHTFPAVLQSSGLYSLESVVTVPSSSLGTQTYICNVNHKPSNTKVDKKVEPKSCDKTHTCPPCPAPELLGGPSVFLFPPKPKDTLMISRTPEVTCVVVDVSHEDPEVKFNWYVDGVEVHNAKTKPCEEQYGSTYRCVSVLTVLHQDWLNGKEYKCKVSNKALPAPIEKTISKAKGQPREPQVYTLPPSRKEMTKNQVSLTCLVKGFYPSDIAVEWESNGQPENNYKTTPPVLKSDGSFFLYSKLTVDKSRWQQGNVFSCSVMHEALHNHYTQKSLSLSPGK
B6: iPS:328051 (bispecific antibody, human IgG1, kappa, lambda, N297G)
light 1: not shown
heavy 1: not shown
light 2: QSVLTQPPSVSAAPGQKVTISCSGSSSNIGNNYVSWYQQLPGTAPKLLIYDNNKRPSGIPDRFSGSKSGTSTTLGITGLQTGDEADYYCGTWDSRLSAVVFGGGTKLTVLGQPKANPTVTLFPPSSEELQANKATLVCLISDFYPGAVTVAWKADGSPVKAGVETTKPSKQSNNKYAAKSYLSLTPEQWKSHRSYSCQVTHEGSTVEKTVAPTECS
heavy 2: QVQLVESGGGVVQPGRSLRLSCAASGFTFSSFGMHWVRQAPGKGLEWVAVISFDGSIKYSVDSVKGRFTISRDNSKNTLFLQMNSLRAEDTAVYYCARDRLNYYDSSGYYHYKYYGMAVWGQGTTVTVSSASTKGPSVFPLAPSSKSTSGGTAALGCLVKDYFPEPVTVSWNSGALTSGVHTFPAVLQSSGLYSLESVVTVPSSSLGTQTYICNVNHKPSNTKVDKKVEPKSCDKTHTCPPCPAPELLGGPSVFLFPPKPKDTLMISRTPEVTCVVVDVSHEDPEVKFNWYVDGVEVHNAKTKPCEEQYGSTYRCVSVLTVLHQDWLNGKEYKCKVSNKALPAPIEKTISKAKGQPREPQVYTLPPSRKKMTKNQVSLTCLVKGFYPSDIAVEWESNGQPENNYKTTPPVLKSDGSFFLYSKLTVDKSRWQQGNVFSCSVMHEALHNHYTQKSLSLSPGK
B7: iPS:328049 (bispecific antibody, human IgG1, kappa, lambda, N297G)
light 1: not shown
heavy 1: not shown
light 2: QSVLTQPPSVSAAPGQKVTISCSGSSSNIGNNYVSWYQQLPGTAPKLLIYDNNKRPSGIPDRFSGSKSGTSTTLGITGLQTGDEADYYCGTWDSRLSAVVFGKGTKLTVLGQPKANPTVTLFPPSSEELQANKATLVCLISDFYPGAVTVAWKADGSPVKAGVETTKPSKQSNNKYAAKSYLSLTPEQWKSHRSYSCQVTHEGSTVEKTVAPTECS
heavy 2: QVQLVESGGGVVQPGRSLRLSCAASGFTFSSFGMHWVRQAPGKELEWVAVISFDGSIKYSVDSVKGRFTISRDNSKNTLFLQMNSLRAEDTAVYYCARDRLNYYDSSGYYHYKYYGMAVWGQGTTVTVSSASTKGPSVFPLAPSSKSTSGGTAALGCLVKDYFPEPVTVSWNSGALTSGVHTFPAVLQSSGLYSLESVVTVPSSSLGTQTYICNVNHKPSNTKVDKKVEPKSCDKTHTCPPCPAPELLGGPSVFLFPPKPKDTLMISRTPEVTCVVVDVSHEDPEVKFNWYVDGVEVHNAKTKPCEEQYGSTYRCVSVLTVLHQDWLNGKEYKCKVSNKALPAPIEKTISKAKGQPREPQVYTLPPSRKEMTKNQVSLTCLVKGFYPSDIAVEWESNGQPENNYKTTPPVLKSDGSFFLYSKLTVDKSRWQQGNVFSCSVMHEALHNHYTQKSLSLSPGK
B8: iPS:327017 (bispecific antibody, human IgG1, kappa, N297G)
light 1: not shown
heavy 1: not shown
light 2: EIVLTQSPGTLSLSPGERATLSCRASQSVSSGYLTWYQQKPGQAPRLLIYGASSRATGIPDRFSGSGSGTDFTLTISRLEPEDFAVYYCQQYGNSLSRFGQGTKLEIKRTVAAPSVFIFPPSDEQLKSGTASVVCLLNNFYPREAKVQWKVDNALQSGNSQESVTEQDSKDSTYSLKSTLTLSKADYEKHKVYACEVTHQGLSSPVTKSFNRGEC
heavy 2: not shown
B9: iPS:327018 (bispecific antibody, human IgG1, kappa, N297G)
light 1: DIQLTQSPSFLSASVGDRVTITCRASQSIGRSLHWYQQKPGKAPKLLIKYASQSLSGVPSRFSGSGSGTEFTLTISSLQPEDFATYYCHQSSRLPFTFGPGTKVDIKRTVAAPSVFIFPPSDEQLKSGTASVVCLLNNFYPREAKVQWKVDNALQSGNSQESVTEQDSKDSTYSLESTLTLSKADYEKHKVYACEVTHQGLSSPVTKSFNRGEC
heavy 1: not shown
light 2: EIVLTQSPGTLSLSPGERATLSCRASQSVSSGYLTWYQQKPGQAPRLLIYGASSRATGIPDRFSGSGSGTDFTLTISRLEPEDFAVYYCQQYGNSLSRFGQGTKLEIKRTVAAPSVFIFPPSDEQLKSGTASVVCLLNNFYPREAKVQWKVDNALQSGNSQESVTEQDSKDSTYSLKSTLTLSKADYEKHKVYACEVTHQGLSSPVTKSFNRGEC
heavy 2: not shown

Experiments:
human PAC1 receptor = target: T1, human PAC1 receptor; experiment: cell-based or functional assay
human CGRP receptor = human CGRP receptor (human, UniProt Q16602 23-461; O60894 27-148); experiment: cell-based or functional assay
Chain of human CGRP receptor (Q16602 23-461 limits assumed, chain 1 of 2): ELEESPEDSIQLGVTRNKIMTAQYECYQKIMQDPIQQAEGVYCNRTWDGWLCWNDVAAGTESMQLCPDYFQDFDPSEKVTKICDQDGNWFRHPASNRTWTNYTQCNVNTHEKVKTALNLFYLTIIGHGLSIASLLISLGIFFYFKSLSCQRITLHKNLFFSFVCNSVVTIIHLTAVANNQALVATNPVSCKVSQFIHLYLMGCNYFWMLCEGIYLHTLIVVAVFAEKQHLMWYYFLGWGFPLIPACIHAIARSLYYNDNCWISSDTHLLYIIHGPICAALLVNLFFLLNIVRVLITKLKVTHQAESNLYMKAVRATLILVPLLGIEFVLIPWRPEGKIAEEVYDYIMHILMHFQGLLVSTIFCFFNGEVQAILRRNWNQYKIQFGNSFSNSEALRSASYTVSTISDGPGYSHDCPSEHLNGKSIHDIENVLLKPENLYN
Chain of human CGRP receptor (O60894 27-148 limits assumed, chain 2 of 2): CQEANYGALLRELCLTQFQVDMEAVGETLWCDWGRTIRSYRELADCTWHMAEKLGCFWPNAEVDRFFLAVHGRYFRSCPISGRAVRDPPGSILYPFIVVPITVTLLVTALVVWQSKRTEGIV

% inhibition of human PAC1 (human PAC1 receptor)	% inhibition of human CGRPR (human CGRP receptor)	Binder
92%	73%	B1
79%	65%	B2
78%	81%	B3
11%	80%	B4
9%	69%	B5
21%	77%	B6
13%	92%	B7
27%	67%	B8
17%	68%	B9
